Laboratory results as given in US20180312587A1 (ADURO BIOTECH HOLDINGS EUROPE B V, published 2018).

B1: hSIRPα.50A (antibody, V domains shown)
VH: QVQLQQSGPELVKPGASVRISCKASGFTFTNYYIHWVKQRPGQGLEWIGWIYPGNVNTKYNEKFKAKATLTADKSSTTAYMQLSSLASEDSAVYFCARPTIIATDFDVWGAGTTVTVSS
VL: DIVMTQSHKFMSTSVGDRVNITCKASQGVGTAVGWYQQKPGQSPRLLIYWASTRHTGVPDRFTGSGSGTDFSLAISNVQSEDLADYFCQQYSTYPFTFGGGTNLEIK
notes: light chain constant domain not tied; also called mouse hSIRPα.50A; hSIRPα.50A.mIgG1
B2: hSIRPα.40A (antibody, mouse IgG1, kappa, V domains shown)
VH: EVQFQQSGTVLARPGTSVKMSCKASGSTFTSYWMHWVKQGPGQGLQWIGAIYPVNNDTTYNQKFKGKAELTVVTSTSTAYMEVSSLTNEDSAVYYCTRSFYYSLDAAWFVYWGQGTLVTVSA
VL: DIQMTQSPSSLSASLGERVSLTCRASQDIGSRLNWLQQEPDGTIKRLIYATSSLDSGVPKRFSGSRSGSDYSLTISGLESEDFVDYYCLQYASSPFTFGGGTKLEINR
notes: mouse antibody, full chains without signal peptide; also called mouse hSIRPα.40A
B3: KWAR23 (antibody, V domains shown)
VH: EVQLQQSGAELVKPGASVKLSCTASGFNIKDYYIHWVQQRTEQGLEWIGRIDPEDGETKYAPKFQDKATITADTSSNTAYLHLSSLTSEDTAVYYCARWGAYWGQGTLVTVSS
VL: QIVLTQSPAIMSASPGEKVTLTCSASSSVSSSYLYWYQQKPGSSPKLWIYSTSNLASGVPARFSGSGSGTSYSLTISSMEAEDAASYFCHQWSSYPRTFGAGTKLELK

Columns and labels:
human SIRPα variant 1 [1] = biological target: T1, human SIRPα variant 1 (human, UniProt P78324 31-504); test: CELISA, CHO-K1 transfectants
T1 construct: full length ORF on transfected CHO-K1 or HEK293 cells; entry includes the signal peptide; also called hSIRPαV1; SIRPαV1
Method: (§1) The binding specificity of antibodies hSIRPα.40A and hSIRPα.50A to hSIRPα were compared in a CELISA format. In short, CHO-K1 cells were transiently transfected with hSIRPαV1, hSIRPαV2, hSIRPβ1, hSIRPβL, and hSIRPγ cDNAs. Subsequently, hSIRPα binding was assessed by CELISA using CHO-K1.hSIRPαV1, CHO-K1.hSIRPαV2, CHO-K1.hSIRPβ1, CHO-K1.hSIRPβL, and CHO-K1.hSIRPγ cells. Detection of bound antibody was done with goat-anti-mouse IgG-HRP (Southern Biotech).
(§2) In addition, the specificity of hSIRPα.40A for all known of hSIRPα alleles (allelic variants as described by Takenaka et al., Nat Immunol. 8:1313-1323 (2007) was further investigated by CELISA using the same strategy as above. To this end, hSIRPα.40A binding was assessed using CHO-K1 cells that were transiently transfected with cDNAs encoding full length hSIRPαV1, hSIRPαV2, hSIRPαV3 (NA07056_V3) (SEQ ID NO: 44), hSIRPαV4 (NA11832_V4) (SEQ ID NO: 46), hSIRPαV5 (NA18502_V5) (SEQ ID NO: 48), hSIRPαV6 (NA18507_V6) (SEQ ID NO: 50), hSIRPαV8 (NA18570_V8) (SEQ ID NO: 52), and hSIRPαV9 (NA18943_V9) (SEQ ID NO: 54).

human SIRPα variant 2 = biological target: T2, human SIRPα variant 2 (human, UniProt P78324 31-504); test: CELISA, CHO-K1 transfectants
T2 construct: full length ORF on transfected CHO-K1 cells; also called hSIRPαV2; SIRPαV2
Method: as §1, §2

hSIRPαV3 (NA07056_V3) = biological target: T3, hSIRPαV3 (NA07056_V3) (human, UniProt P78324 31-504); test: CELISA, CHO-K1 transfectants
T3 construct: also called human SIRPαV3
Method: as §1, §2

hSIRPαV4 (NA11832_V4) = biological target: T4, hSIRPαV4 (NA11832_V4) (human, UniProt P78324 31-504); test: CELISA, CHO-K1 transfectants
T4 construct: also called human SIRPαV4
T4 chain: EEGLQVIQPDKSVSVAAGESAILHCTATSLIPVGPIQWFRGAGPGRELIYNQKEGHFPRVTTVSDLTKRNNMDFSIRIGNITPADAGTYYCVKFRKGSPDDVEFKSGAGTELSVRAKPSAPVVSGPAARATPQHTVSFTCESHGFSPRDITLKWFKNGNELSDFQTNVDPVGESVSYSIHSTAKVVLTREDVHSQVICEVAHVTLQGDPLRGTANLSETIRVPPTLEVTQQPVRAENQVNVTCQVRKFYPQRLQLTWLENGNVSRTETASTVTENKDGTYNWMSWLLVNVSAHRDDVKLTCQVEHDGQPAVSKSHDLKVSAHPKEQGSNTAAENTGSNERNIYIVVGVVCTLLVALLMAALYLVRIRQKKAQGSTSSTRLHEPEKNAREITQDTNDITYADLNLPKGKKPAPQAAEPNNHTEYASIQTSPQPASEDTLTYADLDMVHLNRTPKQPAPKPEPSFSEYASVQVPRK
Method: as §1, §2

hSIRPαV5 (NA18502_V5) = biological target: T5, hSIRPαV5 (NA18502_V5) (human, UniProt P78324 31-504); test: CELISA, CHO-K1 transfectants
T5 construct: also called human SIRPαV5
Method: as §1, §2

hSIRPαV6 (NA18507_V6) = biological target: T6, hSIRPαV6 (NA18507_V6) (human, UniProt P78324 31-504); test: CELISA, CHO-K1 transfectants
T6 construct: also called human SIRPαV6
Method: as §1, §2

hSIRPαV8 (NA18570_V8) = biological target: T7, hSIRPαV8 (NA18570_V8) (human, UniProt P78324 31-504); test: CELISA, CHO-K1 transfectants
T7 construct: also called human SIRPαV8
Method: as §1, §2

human SIRPα variant 1 [2] = biological target: T1, human SIRPα variant 1; test: CELISA, CHO-K1 transfectants; average of two experiments
Method: The binding specificity of antibody hSIRPα.50A to hSIRPα was compared antibody KWAR23 (Canadian Patent 2939293 A1), in a CELISA format. CHO-K1 cells were transiently transfected with hSIRPαV1, hSIRPαV2, hSIRPβ1, and hSIRPγ (GenBank accession: NM_018556.3) (SEQ ID NO: 39) cDNAs. Subsequently, hSIRPα binding was assessed by CELISA using CHO-K1.hSIRPαV1, CHO-K1.hSIRPαV2, CHO-K1.hSIRPβ1, and CHO-K1.hSIRPγ cells. Detection of bound antibody was performed with goat-anti-mouse IgG-HRP (Southern Biotech) for mouse antibodies including hSIRPα.50A and control antibodies or, alternatively, with goat-anti-human IgG-HRP conjugate (Jackson Immuno Research) for the KWAR23 antibody. KWAR23 (SEQ ID NO: 130; SEQ ID NO: 131) was expressed as a chimeric human IgG4 kappa antibody in CHO cells. As shown in FIG. 2 and the following Table 9, KWAR23 antibody cross-reacts with all members of the SIRP receptor family tested: it binds to hSIRPαV1, hSIRPαV2, hSIRPβ1, and hSIRPγ.

human SIRPα variant 1 [3] = biological target: T1, human SIRPα variant 1; test: flow cytometry, blockade of DyLight488-hCD47/Fc binding to U-937 cells
Method: hCD47 blockade for the KWAR23, clone 18D5, and hSIRPα.40A antibodies was assessed by flow cytometry. For this purpose, THP-1 (ATCC TIB-202) and U-937 (ATCC CRL-1593.2) monocyte cell lines were used as the source of hSIRPα in the assay. THP-1 and U-937 cells were seeded in 96-well round bottomed tissue culture plates and incubated for 45 minutes with FcR Blocking Reagent (Miltenyi Biotec) and indicated anti-hSIRPα antibodies (20 μg/mL and dilutions thereof) in PBS/1% BSA at 4° C. […] After this labeling procedure, cells were washed two times, resuspended in PBS/1% BSA containing 0.1 μg/mL DAPI (BioLegend), and analysed by flow cytometry on the FACSVerse (BD Biosciences). Data were processed and analysed with FlowJo V10 software (FlowJo, LLC) and plotted using GraphPad Prism 6 (GraphPad Software, Inc.). Binding of recombinant hCD47 fused to an Fc domain of human IgG1 was monitored in the presence of increasing amounts of the anti-hSIRPα antibodies. […] IC50 values represent the concentration at which half of the inhibition is observed.

Row | Binder | EC50 (human SIRPα variant 1 [1]) [nM] | EC50 (human SIRPα variant 2) [nM] | EC50 (hSIRPαV3 (NA07056_V3)) [nM] | EC50 (hSIRPαV4 (NA11832_V4)) [nM] | EC50 (hSIRPαV5 (NA18502_V5)) [nM] | EC50 (hSIRPαV6 (NA18507_V6)) [nM] | EC50 (hSIRPαV8 (NA18570_V8)) [nM] | EC50 (human SIRPα variant 1 [2]) [nM] | IC50 (human SIRPα variant 1 [3]) [nM]
1 | B1 | 1.69 | 1.07 | 1.77 | 1.3 | 1.26 | 2.22 | 1.51 | 1.36 | 
2 | B2 | 0.134 | 0.089 | 0.107 | 0.1 | 0.115 | 0.136 | 0.089 |  | 1.42
3 | B3 |  |  |  |  |  |  |  | 0.081 | 0.284
